Laboratory results taken from patent US20090130070A1, “METHOD OF TREATMENT” (The University of Queensland, priority 2004, published 2009).

Experiment: Penetration of Oregon green labeled fetuin A into wounds in the porcine burn model
Assay type: in vivo, pigs
Settings: 4 hours post treatment
Procedure: The potential use of the protein as a topical application was explored by labeling the protein with FluoroReporter Oregon Green® 488 Protein (Molecular Probes) then applying it as 1) a hydrophobic cream 2) a hydrophilic cream and an aqueous solution. These were applied to a porcine burn model and skin samples were collected 4 hours after application. Penetration of the protein into the wound was observed by epifluorescent microscopy.
Lyophilised bovine Fetuin A (Sigma) was dissolved in purified water at a concentration of 10 mg/mL. Aliquots of 200 μl were labelled using a FluoroReporter Oregon Green® 488 Protein Labelling Kit (Molecular Probes) after the manufacturer's instructions. The resulting solution was dried down using a Labconco Centrivap concentrator and weighed. Sufficient carriers (paraffin cream (Orion, Australia), aqueous cream (Orion, Australia) or purified water) were added to produce a final concentration of 2 mg/ml of solution or 2 mg/g fetuin cream. Sufficient unlabelled fetuin A was added to the solution and cream to bring the total fetuin A concentration up to 40 mg/ml or gram.
All animal experiments were approved by the University of Queensland animal ethics committee. Six 20 kg pigs (approximately 9 weeks post partum) were scalded under general anaesthesia. Water (400 mls) was placed in a 500 ml Schott bottle whose base had been removed with a diamond saw and replaced by cling wrap held in place by autoclave tape. The water was heated in a microwave oven to 92° C. (temperature was measured with a Dick Smith Q1437 digital thermometer) then the bottle was placed on the clipped side of the animal for 15 seconds. A single 8.5 cm diameter wound was placed on each side of the animal. Each animal received a different treatment these being:
1. Treatment of intact skin with an aqueous solution of 2 mls of Oregon green labeled bovine fetuin (40 mg/ml in sterile phosphate buffered saline pH 7.4).
2. Treatment of intact skin with an aqueous gel of 2 g of Oregon green labeled bovine fetuin (40 mg/g in Solosite™ wound gel).
3. […]

Fetuin: bovine fetuin A (Sigma); glycoprotein also called alpha2-Heremans-Schmid-glycoprotein (AHSG)
penetration into the wound bed (debrided wound, aqueous solution): significant penetration into the wound bed
penetration into the wound bed (debrided wound, water based gel): significant penetration into the wound bed
penetration into the wound bed (direct injection into the wound): significant penetration into the wound bed
